From patent US11905559B2, “Materials and methods for controlling gene expression” (priority 2016, dated 2024)
Where “and” joins values, the source holds several entries; their conditions need not be identical. Equal entries are not always repeated.

Key:
[1] = Constant-force optical tweezers folding assay of the wild-type aptamer in 2,6-diaminopurine (DAP); type: physicochemical; settings: 3 mM Mg^2+; for Folding rate kf / Transition distance ΔX / Unfolding rate ku / ΔG (0): 250 uM DAP; for ΔG (0): zero force
From the text: Guanine binds to the aptamer via nucleobases U^22, U^47, U^51 and C^74 in the junction J1/2, J2/3 and J3/1. The hydrogen bonding between C^74 with the functional group in the 6th position of the purine is deterministic for ligand recognition. The purine analog 2,6-diaminopurine (DAP) differs from guanine in having an amino group in the 6th position (FIG. 13), and thus disrupts the hydrogen bonding pattern. […] In order to investigate if the loop-loop dynamics in the guanine-riboswitch are affected with a change in the ligand, mechanical assays in the presence of DAP were performed. […] Furthermore, a near similar L2-L3 kinetics highlighted that the tertiary and the secondary interactions remained unaffected by replacing guanine with DAP (Table 1).
In a constant-force (CF) experiment, the RNA is held at a preset force through feedback control. The preset force typically fluctuated around the mean with a standard deviation ±0.15 pN. In this mode, data is recorded from 4-40 kHz to capture the fast intermediates. The plots are shown as extension vs. time (as in FIG. 6A). In force-jump (FJ) assay, the force is suddenly jumped from one force to another, and then held constant thereafter, as shown in FIGS. 23A-B.
All FR, CF and FJ experiments were carried out at an ambient temperature, 25±0.5° C. The buffer in the microfluidics contained 10 mM Tris-HCl, pH 7.5 at 25° C., 250 mM NaCl, 3 mM MgCl2, and purine concentrations as indicated in wild-type aptamer. Unless stated otherwise, Mg^2+ concentration in the buffer was maintained at 3 mM in all experiments. The buffer in mutant m1 contained 5 mm Mg^2+ and 1 μM G, and in m3 contained 5 mM Mg^2+ and 200 nM Guanine. For the remaining m2, m4, m5 and m6 mutants, the buffer in single-molecule experiments was supplemented only with 3 mM Mg^2+ and 200 nM Guanine.

[2] = Constant-force (CF) single-molecule optical tweezers folding assay of guanine-aptamer RNAs in guanine buffer; type: physicochemical; settings: for F^eq / k^eq: [G] = 200 nM; for Observed nucleotides / Observed ΔXobs: CF; for k^eq: at F^eq; for Equilibrium force F^eq / Folding rate kf / Unfolding rate ku / Transition distance ΔX / ΔG (0): 3 mM Mg^2+; for Folding rate kf / Unfolding rate ku / Transition distance ΔX / ΔG (0): 200 nM G
Method in brief: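 Single RNA aptamer tethered between beads via ~550 nt handles in dual-beam optical tweezers (trap stiffness 0.04-0.06 pN/nm), held at preset force (±0.15 pN) under feedback, extension recorded at 4-40 kHz. 25±0.5 °C; 10 mM Tris-HCl pH 7.5, 250 mM NaCl, 3 mM MgCl2 plus guanine; some mutants 5 mM Mg2+.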

[3] = in-line probing assay; read-out: KD for guanine; cited from earlier work
[4] = transition BA (P1 folding), F 8.5 pN
[5] = transition C′B (L2-L3 folding), F 8.5 pN
[6] = transition DC (P3 folding), F 12.0 pN
[7] = transition ED (P2 folding), F 13.5 pN
[8] = transition CB (J2/3 folding), F 13 pN
[9] = transition DC (P3 folding), F 13 pN
[10] = transition ED (P2 folding), F 13 pN

B1: wt: 69-nucleotide full-length wild-type guanine sensing aptamer RNA sequence from xpt-pbuX operon in B. subtilis (SEQ ID NO: 1) (nucleic acid)
chain: CACUCAUAUAAUCGCGUGGAUAUGGCACGCAAGUUUCUACCGGGCACCGUAAAUGUCCGACUAUGGGUG
modifications: RNA, backbone and methylation of C not given here
Equilibrium force F^eq ([1]; transition BA (P1 folding), 250 uM DAP (rates at 8.5 pN)): 9.8 ± 0.1 pN
Folding rate kf [1, 4]: 0.29 ± 0.02 s⁻¹
Transition distance ΔX [1, 4]: 9.7 ± 0.2 nm
Unfolding rate ku [1, 4]: 0.023 ± 0.004 s⁻¹
ΔG (0) ([1]; transition BA (P1 folding), from data at 8.5 pN): −16.6 ± 0.5 kBT
Equilibrium force F^eq ([1]; transition C′B (L2-L3 folding), 250 uM DAP (rates at 8.5 pN)): 8.7 ± 0.2 pN
Folding rate kf [1, 5]: 0.96 ± 0.08 s⁻¹
Transition distance ΔX [1, 5]: 3.6 ± 0.2 nm
Unfolding rate ku [1, 5]: 0.8 ± 0.06 s⁻¹
ΔG (0) ([1]; transition C′B (L2-L3 folding), from data at 8.5 pN): −7.6 ± 0.4 kBT
Equilibrium force F^eq ([1]; transition DC (P3 folding), 250 uM DAP (rates at 12.0 pN)): 12.3 ± 0.02 pN
Folding rate kf [1, 6]: 22.0 ± 0.6 s⁻¹
Transition distance ΔX [1, 6]: 7.5 ± 0.3 nm
Unfolding rate ku [1, 6]: 14.3 ± 0.4 s⁻¹
ΔG (0) ([1]; transition DC (P3 folding), from data at 12.0 pN): −15.5 ± 0.9 kBT
Equilibrium force F^eq ([1]; transition ED (P2 folding), 250 uM DAP (rates at 13.5 pN)): 13.6 ± 0.02 pN
Folding rate kf [1, 7]: 14.7 ± 0.4 s⁻¹
Transition distance ΔX [1, 7]: 7.0 ± 0.2 nm
Unfolding rate ku [1, 7]: 13.4 ± 0.4 s⁻¹
ΔG (0) ([1]; transition ED (P2 folding), from data at 13.5 pN): −16.3 ± 0.7 kBT
F^eq ([2]; Closed J2/3 (CB)): ~13 pN
Time to form the native receptor structure after guanine binding ([2]; FIG. 22): ~8 μsec
Observed nucleotides ([2]; J2/3 (CB), 13 pN): 8.4 ± 0.2
Observed ΔXobs ([2]; J2/3 (CB), 13 pN): 3.5 ± 0.1 (CF) nm
Observed ΔXobs ([2]; L2-L3 (C′B), 8.5 pN): 3.4 ± 0.1 (CF) nm
F^eq ([2]; L2-L3 (C′B)): 8.72 ± 0.11 pN
k^eq ([2]; L2-L3 (C′B)): 0.82 ± 0.06 s⁻¹
F^eq ([2]; P1 (BA)): 8.21 ± 0.11 pN
k^eq ([2]; P1 (BA)): 0.55 ± 0.09 s⁻¹
Observed nucleotides ([2]; P1+ junctions (BA), 8.5 pN): 21.7 ± 0.5
Observed ΔXobs ([2]; P1+ junctions (BA), 8.5 pN, 2 nm helix width subtracted): 8.0 ± 0.2 (CF) nm
F^eq ([2]; P2 (ED)): 13.49 ± 0.03 pN
k^eq ([2]; P2 (ED)): 13.20 ± 0.20 s⁻¹
Observed nucleotides ([2]; P2 hairpin (ED), 13 pN): 17±1
Observed ΔXobs ([2]; P2 hairpin (ED), 13 pN): 7.1 ± 0.4 (CF) nm
F^eq ([2]; P3 (DC)): 12.19 ± 0.02 pN
k^eq ([2]; P3 (DC)): 16.80 ± 0.30 s⁻¹
Observed nucleotides ([2]; P3 hairpin (DC), 13 pN): 19±1 and 18.9 ± 1
Observed ΔXobs ([2]; P3 hairpin (DC), 13 pN): 7.9 ± 0.4 (CF) nm
Barrier ΔGP1^‡ before folding of the P1-stem ([2]; free energy landscape transformed to zero force): ~6 kBT
F^eq for P2-P3 ([2]; guanine-aptamer): ~13 pN
Rates for the two hairpins P2 and P3 ([2]; range over Table 1): 8.5 to 32.3 s⁻¹
Equilibrium force F^eq ([2]; transition BA (P1 folding), 200 nM G (rates at 8.5 pN)): 8.2 ± 0.1 pN
Folding rate kf [2, 4]: 0.4 ± 0.03 s⁻¹
Unfolding rate ku [2, 4]: 0.7 ± 0.09 s⁻¹
Transition distance ΔX ([2]; transition BA (P1 folding), F 8.5 pN, no helix width adjustment): 9.9 ± 0.2 nm
ΔG (0) ([2]; transition BA (P1 folding), zero force, from data at 8.5 pN): −13.9 ± 0.4 kBT
ΔG (0) ([2]; transition BA (P1 folding), zero force, from data at 8.5 pN, listed as wild-type): −13.9 kBT
Transition distance ΔX [2, 8]: 3.5 ± 0.1 nm
Unfolding rate ku [2, 8]: 2.6 ± 0.5 s⁻¹
ΔG (0) ([2]; transition CB (J2/3 folding), zero force, ΔG(0) = −F·ΔX + ΔGstretch): −7.2 ± 0.3 kBT
Equilibrium force F^eq ([2]; transition C′B (L2-L3 folding), 200 nM G (rates at 8.5 pN)): 8.7 ± 0.1 pN
Folding rate kf [2, 5]: 0.9 ± 0.06 s⁻¹
Transition distance ΔX [2, 5]: 3.4 ± 0.1 nm
Unfolding rate ku [2, 5]: 0.8 ± 0.05 s⁻¹
ΔG (0) ([2]; transition C′B (L2-L3 folding), zero force, from data at 8.5 pN): −7.1 ± 0.2 kBT
Equilibrium force F^eq ([2]; transition DC (P3 folding), 200 nM G (rates at 13 pN)): 12.2 ± 0.02 pN
Equilibrium force F^eq ([2]; transition DC (P3 folding), 200 nM G (rates at 13 pN), listed as wild-type): 12.2±0.02 pN
Folding rate kf [2, 9]: 8.5 ± 0.1 s⁻¹
Transition distance ΔX [2, 9]: 7.9±0.4 nm
Unfolding rate ku [2, 9]: 32.3 ± 0.5 s⁻¹
ΔG (0) ([2]; transition DC (P3 folding), zero force, from data at 13 pN): −16.3 ± 0.3 kBT
ΔG (0) ([2]; transition DC (P3 folding), zero force, from data at 13 pN, listed as wild-type): −16.3 kBT
Equilibrium force F^eq ([2]; transition ED (P2 folding), 200 nM G (rates at 13 pN)): 13.5 ± 0.03 pN
Equilibrium force F^eq ([2]; transition ED (P2 folding), 200 nM G (rates at 13 pN), listed as wild-type): 13.5±0.03 pN
Folding rate kf [2, 10]: 20.0 ± 0.4 s⁻¹
Transition distance ΔX [2, 10]: 7.1±0.4 nm
Unfolding rate ku [2, 10]: 8.9 ± 0.1 s⁻¹
ΔG (0) ([2]; transition ED (P2 folding), zero force, from data at 13 pN): −16.7 ± 0.3 kBT
Net free energy change ΔΔGaptamer ([2]; zero force, guanine-bound receptor structure): −81 kT
Kd [3]: ~5 nM
